Patent US20250009808A1

Target: rat RT1A class I histocompatibility antigen (rat (Rattus norvegicus)) (UniProt P16391)
Assay: heterogeneous rat liver cells incubated with antibody; cell count of retained versus flow-through fractions

UniProt P16391, sequence (P16391 25-371 limits assumed): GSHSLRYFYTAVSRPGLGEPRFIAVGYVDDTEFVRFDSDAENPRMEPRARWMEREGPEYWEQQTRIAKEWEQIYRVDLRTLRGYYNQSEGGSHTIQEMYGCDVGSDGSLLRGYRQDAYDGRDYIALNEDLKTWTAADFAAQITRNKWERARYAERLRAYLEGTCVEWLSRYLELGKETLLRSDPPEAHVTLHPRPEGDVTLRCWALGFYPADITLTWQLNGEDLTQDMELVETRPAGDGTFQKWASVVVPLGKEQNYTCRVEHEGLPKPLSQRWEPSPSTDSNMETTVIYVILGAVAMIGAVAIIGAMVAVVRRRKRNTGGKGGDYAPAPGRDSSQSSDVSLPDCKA

percent of total cells in the population bound [%] | Substance
60 | anti-RT1A monoclonal antibody IgG1 MRC clone OX-18
> 60 | anti-RT1A monoclonal antibody IgG1 clone F16-4-4
< 10 | anti-RT1A monoclonal antibody IgG2a MRC clone OX-27
